According to doi:10.1101/2024.02.29.582761:

Experiments:
Assay in all cases: BLI
[1] = target: His-SUMO-GroTAC1 (E. coli)
[2] = target: His-SUMO-XB-GGS peptide (E. coli)
His-SUMO-GGS-SBP peptide = target: His-SUMO-GGS-SBP peptide

Row | Kd [1] | Kd [2] | Kd (His-SUMO-GGS-SBP peptide) | Substance
1 | 70 nM | 65 nM | – | ClpX (from UniProt P0A6H1 1-424) (enzyme)
2 | 154 nM | – | 94 nM | GroEL (from UniProt P0A6F5 1-548) (natural protein)
